US20190309072A1 (published 2019)

How the values were obtained:
human ITGa3 protein = target: T1, human ITGa3 protein (human, UniProt P26006 33-991); assay: ELISA; apparent Kd
T1 chain: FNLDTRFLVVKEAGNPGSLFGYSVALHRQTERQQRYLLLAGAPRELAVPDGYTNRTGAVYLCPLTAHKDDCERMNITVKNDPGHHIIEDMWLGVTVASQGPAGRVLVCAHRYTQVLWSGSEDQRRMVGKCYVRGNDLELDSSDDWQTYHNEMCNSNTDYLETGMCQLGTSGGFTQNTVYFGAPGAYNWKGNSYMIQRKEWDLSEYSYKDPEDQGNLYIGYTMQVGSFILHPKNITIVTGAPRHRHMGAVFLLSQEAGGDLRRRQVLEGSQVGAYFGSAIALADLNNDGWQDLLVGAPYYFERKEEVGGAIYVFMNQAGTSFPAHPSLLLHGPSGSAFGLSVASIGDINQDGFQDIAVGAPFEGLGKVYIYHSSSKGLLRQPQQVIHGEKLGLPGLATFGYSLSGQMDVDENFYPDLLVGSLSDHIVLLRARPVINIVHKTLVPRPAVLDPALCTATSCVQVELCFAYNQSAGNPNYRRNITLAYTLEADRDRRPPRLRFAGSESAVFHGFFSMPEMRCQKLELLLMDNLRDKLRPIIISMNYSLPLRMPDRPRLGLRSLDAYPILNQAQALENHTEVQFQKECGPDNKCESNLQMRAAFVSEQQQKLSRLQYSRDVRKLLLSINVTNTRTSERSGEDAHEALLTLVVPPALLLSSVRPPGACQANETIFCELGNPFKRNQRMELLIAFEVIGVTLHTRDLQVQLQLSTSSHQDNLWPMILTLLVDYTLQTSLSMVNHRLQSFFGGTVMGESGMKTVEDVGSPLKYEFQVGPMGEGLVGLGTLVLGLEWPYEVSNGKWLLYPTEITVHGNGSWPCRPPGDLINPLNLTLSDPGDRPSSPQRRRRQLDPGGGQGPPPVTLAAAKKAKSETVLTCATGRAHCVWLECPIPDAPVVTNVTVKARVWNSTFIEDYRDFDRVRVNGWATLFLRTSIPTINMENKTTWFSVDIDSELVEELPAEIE

[1] = target: T2, human ITGa3 on human-derived cell lines (human, UniProt P26006 33-1051); assay: FACS; human H292 cells
T2 chain: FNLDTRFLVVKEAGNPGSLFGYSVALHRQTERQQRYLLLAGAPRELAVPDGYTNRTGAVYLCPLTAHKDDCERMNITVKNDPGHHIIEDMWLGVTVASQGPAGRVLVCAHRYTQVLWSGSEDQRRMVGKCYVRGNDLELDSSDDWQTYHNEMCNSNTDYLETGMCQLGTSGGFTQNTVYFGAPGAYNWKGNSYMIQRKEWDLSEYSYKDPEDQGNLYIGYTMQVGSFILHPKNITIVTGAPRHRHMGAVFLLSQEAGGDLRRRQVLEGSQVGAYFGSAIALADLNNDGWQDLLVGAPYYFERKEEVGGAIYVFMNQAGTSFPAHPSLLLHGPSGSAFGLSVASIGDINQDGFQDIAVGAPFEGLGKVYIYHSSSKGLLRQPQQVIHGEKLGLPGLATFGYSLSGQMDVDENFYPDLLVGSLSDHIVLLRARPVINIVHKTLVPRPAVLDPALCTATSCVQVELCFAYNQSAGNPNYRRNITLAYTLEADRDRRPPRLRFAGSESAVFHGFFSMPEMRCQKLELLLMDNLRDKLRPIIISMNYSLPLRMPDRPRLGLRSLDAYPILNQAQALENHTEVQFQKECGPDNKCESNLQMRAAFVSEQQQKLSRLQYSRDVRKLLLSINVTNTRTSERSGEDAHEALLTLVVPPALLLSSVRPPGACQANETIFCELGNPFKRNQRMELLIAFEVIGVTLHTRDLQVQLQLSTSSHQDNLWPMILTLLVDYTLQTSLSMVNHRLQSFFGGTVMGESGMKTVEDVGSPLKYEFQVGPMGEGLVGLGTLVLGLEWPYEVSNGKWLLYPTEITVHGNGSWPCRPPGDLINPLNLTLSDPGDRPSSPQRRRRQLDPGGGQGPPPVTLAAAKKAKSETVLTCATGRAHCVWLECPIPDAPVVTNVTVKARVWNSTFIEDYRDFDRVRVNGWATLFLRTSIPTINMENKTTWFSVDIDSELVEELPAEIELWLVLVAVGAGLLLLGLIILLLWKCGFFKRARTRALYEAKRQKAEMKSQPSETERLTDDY

[2] = target: T3, cynomolgus monkey ITGa3 on cynomolgus-derived primary kidney epithelial cells (cynomolgus monkey, UniProt A0A2K5VFR2 17-1035); assay: FACS; cyno primary kidney epithelial cells
T3 chain: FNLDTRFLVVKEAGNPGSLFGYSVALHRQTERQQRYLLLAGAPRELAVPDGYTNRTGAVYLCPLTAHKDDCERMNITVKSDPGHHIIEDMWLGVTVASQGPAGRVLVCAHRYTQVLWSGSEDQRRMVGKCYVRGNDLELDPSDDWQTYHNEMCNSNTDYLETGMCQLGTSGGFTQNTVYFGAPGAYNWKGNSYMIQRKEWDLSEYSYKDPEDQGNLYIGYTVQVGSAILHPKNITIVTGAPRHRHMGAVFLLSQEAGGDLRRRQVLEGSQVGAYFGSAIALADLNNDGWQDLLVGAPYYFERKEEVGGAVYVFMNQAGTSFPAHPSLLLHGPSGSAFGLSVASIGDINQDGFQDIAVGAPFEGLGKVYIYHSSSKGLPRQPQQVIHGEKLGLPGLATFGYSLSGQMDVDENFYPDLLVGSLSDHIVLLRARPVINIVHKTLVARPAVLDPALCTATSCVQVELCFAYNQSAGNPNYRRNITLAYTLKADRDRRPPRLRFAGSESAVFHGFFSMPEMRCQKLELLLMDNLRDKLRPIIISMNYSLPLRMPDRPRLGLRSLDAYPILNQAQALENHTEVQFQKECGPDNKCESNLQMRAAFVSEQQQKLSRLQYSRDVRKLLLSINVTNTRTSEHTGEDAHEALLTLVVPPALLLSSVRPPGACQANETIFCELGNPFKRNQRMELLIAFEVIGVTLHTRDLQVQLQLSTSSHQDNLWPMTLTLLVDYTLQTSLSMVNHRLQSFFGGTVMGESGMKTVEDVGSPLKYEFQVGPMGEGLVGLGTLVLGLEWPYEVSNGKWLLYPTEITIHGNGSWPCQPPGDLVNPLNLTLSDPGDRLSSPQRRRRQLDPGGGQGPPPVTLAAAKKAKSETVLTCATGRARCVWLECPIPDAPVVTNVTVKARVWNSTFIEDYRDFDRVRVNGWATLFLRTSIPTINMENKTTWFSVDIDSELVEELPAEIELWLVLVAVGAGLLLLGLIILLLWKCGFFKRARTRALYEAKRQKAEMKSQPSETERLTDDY

B1: anti-ITGa3 huVM2 Hc2T62G/Lc1 antibody (antibody, V domains shown)
VH: QVQLVQSGAEVKKPGSSVKVSCKASGYTFTEYIIHWVRQAPGQGLEWIGWFYPESGSVKYNEGFKGRATITADKSTSTAYMELSSLRSEDTAVYYCARHEERDYYGYYAMDYWGQGTTVTVSS
VL: DIQMTQSPSSLSASVGDRVTITCSASSSISSNYLHWYQQKPGKVPKLLIYRTSNLASGVPSRFSGSGSGTDYTLTISSLQPEDVATYYCQQGSSIPRFTSGGGTKVEIKR
Kd (human ITGa3 protein): 180 pM | Kd [1]: 270 pM | Kd [2]: 170 pM
